Test results published in article PMC8939769.

Experiments:
[1] = biological target: SARS-CoV-2 S trimer (S2P ectodomain protein) (SARS-CoV-2) (UniProt P0DTC2)
[2] = biological target: SARS-CoV-2 S trimer (S2P ectodomain protein) (SARS-CoV-2) (UniProt P0DTC2); assay: not stated; binding kinetics (ka, kd, KD) on the SARS-CoV-2 S trimer (S2P ectodomain protein); representative of at least two independent assays; assay details in the Supplementary materials

Substance: AZD7442 (combination of AZD8895 and AZD1061)
- neutralization of the USA-WA1/2020 strain of SARS-CoV-2 in vitro, IC50 [1]: 10 ng/mL
- Kd [2]: 0.0137 nM
